Each block holds one binder with its values, some of them ahead of it.
Assays:
[1] = molecular target: the molecule itself; assay: dynamic light scattering; 1–30 μM protein (monomeric units) in buffer A with 2 mM ATP and an ATP-regenerating system (phosphoenolpyruvate, pyruvate kinase); self-association
full-length ClpB M394C = molecular target: T1, full-length ClpB M394C (Thermus thermophilus, UniProt Q9RA63 1-854, M394C); assay: cross-linking; intermolecular disulfide between two single-cysteine variants, 50 μM each, 50 μM copper phenanthroline, 2 mM ADP, 50 mM Tris/HCl pH 7.5, 50 mM KCl, 5 mM MgCl2, 1 h at 37 °C; dimer separated on Superdex 200 26/60, non-reducing SDS-PAGE; settings: both partners purified
T1 construct: ClpB from Thermus thermophilus, full-length protein; source: E. coli BL21 (DE3) RIL, purified

ClpB NBD1-M M394C = molecular target: T2, ClpB NBD1-M M394C (Thermus thermophilus, UniProt Q9RA63 141-534, M394C); assay: as above; settings: both partners purified
T2 construct: ClpB from Thermus thermophilus, NBD1 and M-domain, amino acids 141-534; source: E. coli BL21 (DE3) RIL, purified

[2] = molecular target: the molecule itself; assay: SEC-MALS; Superdex 200 10/300 GL with multiangle static light scattering (SLS), buffer A (50 mM Tris/HCl pH 7.5, 50 mM KCl, 5 mM MgCl2, 2 mM EDTA); running buffer nucleotide-free or with 2 mM ADP or 2 mM ATP; 40 μl of 100 μM injected, about 2 μM at the detector; self-association induced by nucleotide
ClpB NBD1-M A390C = molecular target: T3, ClpB NBD1-M A390C (Thermus thermophilus, UniProt Q9RA63 141-534, A390C); assay: cross-linking; intermolecular disulfide between two single-cysteine variants, 50 μM each, 50 μM copper phenanthroline, 2 mM ADP, 50 mM Tris/HCl pH 7.5, 50 mM KCl, 5 mM MgCl2, 1 h at 37 °C; dimer separated on Superdex 200 26/60, non-reducing SDS-PAGE; settings: both partners purified
T3 construct: ClpB from Thermus thermophilus, NBD1 and M-domain, amino acids 141-534; source: E. coli BL21 (DE3) RIL, purified

B1: ClpB NBD1-M R322A (domain or fragment)
chain: not shown
notes: ClpB from Thermus thermophilus, NBD1 and M-domain, amino acids 141-534; also called single mutant R322A; source: E. coli BL21 (DE3) RIL, purified
- stoichiometry N [1]: 2

- binding result (full-length ClpB M394C): binds
B2: full-length ClpB P221C (natural protein, Thermus thermophilus, UniProt Q9RA63 1-854, looked up)
chain: MNLERWTQAAREALAQAQVLAQRMKHQAIDLPHLWAVLLKDERSLAWRLLEKAGADPKALKELQERELARLPKVEGAEVGQYLTSRLSGALNRAEALMEELKDRYVAVDTLVLALAEATPGLPGLEALKGALKELRGGRTVQTEHAESTYNALEQYGIDLTRLAAEGKLDPVIGRDEEIRRVIQILLRRTKNNPVLIGEPGVGKTAIVEGLAQRIVKGDVCEGLKGKRIVSLQMGSLLAGAKYRGEFEERLKAVIQEVVQSQGEVILFIDELHTVVGAGKAEGAVDAGNMLKPALARGELRLIGATTLDEYREIEKDPALERRFQPVYVDEPTVEETISILRGLKEKYEVHHGVRISDSAIIAAATLSHRYITERRLPDKAIDLIDEAAARLRMALESAPEEIDALERKKLQLEIEREALKKEKDPDSQERLKAIEAEIAKLTEEIAKLRAEWEREREILRKLREAQHRLDEVRREIELAERQYDLNRAAELRYGELPKLEAEVEALSEKLRGARFVRLEVTEEDIAEIVSRWTGIPVSKLLEGEREKLLRLEEELHKRVVGQDEAIRAVADAIRRARAGLKDPNRPIGSFLFLGPTGVGKTELAKTLAATLFDTEEAMIRIDMTEYMEKHAVSRLIGAPPGYVGYEEGGQLTEAVRRRPYSVILFDEIEKAHPDVFNILLQILDDGRLTDSHGRTVDFRNTVIILTSNLGSPLILEGLQKGWPYERIRDEVFKVLQQHFRPEFLNRLDEIVVFRPLTKEQIRQIVEIQLSYLRARLAEKRISLELTEAAKDFLAERGYDPVFGARPLRRVIQRELETPLAQKILAGEVKEGDRVQVDVGPAGLVFAVPARVEA
notes: ClpB from Thermus thermophilus, full-length protein; source: E. coli BL21 (DE3) RIL, purified

B3: ClpB NBD1-M wild type (domain or fragment)
chain: not shown
notes: ClpB from Thermus thermophilus, NBD1 and M-domain, amino acids 141-534; also called unlinked NBD1-M wild type; ClpB construct comprising residues 141-534; source: E. coli BL21 (DE3) RIL, purified
- stoichiometry N [1]: 3

B4: ClpB NBD1-M R322A/R323A (domain or fragment)
chain: not shown
notes: ClpB from Thermus thermophilus, NBD1 and M-domain, amino acids 141-534; also called double mutant; source: E. coli BL21 (DE3) RIL, purified
- stoichiometry N [1]: 2

B5: ClpB NBD1-M R323A (domain or fragment)
chain: not shown
notes: ClpB from Thermus thermophilus, NBD1 and M-domain, amino acids 141-534; also called single mutant R323A; source: E. coli BL21 (DE3) RIL, purified
- stoichiometry N [1]: 2

- binding result (ClpB NBD1-M M394C): binds
B6: ClpB NBD1-M P221C (domain or fragment, Thermus thermophilus, UniProt Q9RA63 141-534, looked up)
chain: VQTEHAESTYNALEQYGIDLTRLAAEGKLDPVIGRDEEIRRVIQILLRRTKNNPVLIGEPGVGKTAIVEGLAQRIVKGDVCEGLKGKRIVSLQMGSLLAGAKYRGEFEERLKAVIQEVVQSQGEVILFIDELHTVVGAGKAEGAVDAGNMLKPALARGELRLIGATTLDEYREIEKDPALERRFQPVYVDEPTVEETISILRGLKEKYEVHHGVRISDSAIIAAATLSHRYITERRLPDKAIDLIDEAAARLRMALESAPEEIDALERKKLQLEIEREALKKEKDPDSQERLKAIEAEIAKLTEEIAKLRAEWEREREILRKLREAQHRLDEVRREIELAERQYDLNRAAELRYGELPKLEAEVEALSEKLRGARFVRLEVTEEDIAEIVSRWT
notes: ClpB from Thermus thermophilus, NBD1 and M-domain, amino acids 141-534; source: E. coli BL21 (DE3) RIL, purified

B7: cross-linked NBD1-M dimer wild-type (P221C/M394C disulfide) (complex)
chain 1: B6 chain
chain 2: not shown
modifications: intermolecular disulfide bond between P221C of this chain and M394C of the other chain | intermolecular disulfide bond between M394C of this chain and P221C of the other chain
notes: ClpB from Thermus thermophilus, NBD1 and M-domain, amino acids 141-534; also called cross-linked wild-type dimer; P221C/M394C dimer; source: E. coli BL21 (DE3) RIL, purified; the two cysteine variants oxidised with copper phenanthroline, dimer separated on Superdex 200
- stoichiometry N [2]: ~4 NBD1-M subunits (two cross-linked dimers)

- binding result (ClpB NBD1-M A390C): binds
B8: ClpB NBD1-M Q184C (domain or fragment)
chain: not shown
notes: as for B6
